6 sequences from the supplement of paper PMC11246515 can be followed below.

This data set in a line: total protein half-life in vivo (active degradation + dilution); higher = more stable protein.
[1] abbreviates: E. coli NCM3722 delta-clpP delta-lon delta-hslV, growth: N-lim chemostat, doubling time 6 h.
[2] abbreviates: E. coli NCM3722 delta-hslV, growth: N-lim chemostat, doubling time 6 h.
Where [3] appears, read: E. coli NCM3722 delta-lon, growth: N-lim chemostat, doubling time 6 h.
[4] abbreviates: E. coli NCM3722 delta-smpB, growth: N-lim chemostat, doubling time 6 h.
The mark [5] stands for this setting: wild type E. coli NCM3722, growth: C-lim chemostat, doubling time 12 h.
[6] abbreviates: wild type E. coli NCM3722, growth: N-lim chemostat, doubling time 6 h.
The mark [7] stands for this setting: wild type E. coli NCM3722, growth: N-lim chemostat, doubling time 12 h.
The mark [8] stands for this setting: wild type E. coli NCM3722, growth: P-lim chemostat, doubling time 6 h.
The mark [9] stands for this setting: wild type E. coli NCM3722, growth: P-lim chemostat, doubling time 12 h.
The mark [10] stands for this setting: E. coli NCM3722 delta-clpP, growth: N-lim chemostat, doubling time 6 h.
The mark [11] stands for this setting: wild type E. coli NCM3722, growth: C-lim chemostat, doubling time 3 h.
The mark [12] stands for this setting: wild type E. coli NCM3722, growth: C-lim chemostat, doubling time 6 h.

± gives the standard deviation of the averaged measurements.

“MAATKPAFNPPGKKGDIIFSVLVKLAALIVLLMLGGIIVSLIISSWPSIQKFGLAFLWTKEWDAPNDIYGALVPIYGTLVTSFIALLIAVPVSFGIALFLTELAPGWLKRPLGIAIELLAAIPSIVYGMWGLFIFAPLFAVYFQEPVGNIMSNIPIVGALFSGPAFGIGILAAGVILAIMIIPYIAAVMRDVFEQTPVMMKESAYGIGCTTWEVIWRIVLPFTKNGVIGGIMLGLGRALGETMAVTFIIGNTYQLDSASLYMPGNSITSALANEFAEAESGLHVAALMELGLILFVITFIVLAASKFMIMRLAKNEGAR [P0AGH8]”: the “total protein half-life in vivo” value came out at 5.52 ± 1 h under setting [1]; 5.62 ± 0.46 h under setting [2]; 5.31 ± 1.4 h under setting [3]; 5.08 ± 0.47 h under setting [4]; 15.4 h under setting [5]; 3.42 h under setting [6]. Also, the “total protein half-life in vivo” value is 12.1 h under setting [7], 5.49 ± 0.25 h under setting [8] and 11.4 ± 0.52 h under setting [9].
Regarding “MSASLAILTIGIVPMQEVLPLLTEYIDEDNISHHSLLGKLSREEVMAEYAPEAGEDTILTLLNDNQLAHVSRRKVERDLQGVVEVLDNQGYDVILLMSTANISSMTARNTIFLEPSRILPPLVSSIVEDHQVGVIVPVEEMLPVQAQKWQILQKSPVFSLGNPIHDSEQKIIDAGKELLAKGADVIMLDCLGFHQRHRDLLQKQLDVPVLLSNVLIARLAAELLV [P0AE28]”, the “total protein half-life in vivo” value was 3.97 h under setting [1]; 2.28 h under setting [10]; 1.41 h under setting [4]; 2.32 ± 0.053 h under setting [11]; 3.15 ± 0.55 h under setting [12]; 3.7 h under setting [5]. Moreover, the “total protein half-life in vivo” value under setting [6] turned out to be 1.67 ± 0.018 h and the “total protein half-life in vivo” value under setting [9] stood at 7.89 h.
As for “MSQDPFQEREAEKYANPIPSREFILEHLTKREKPASRDELAVELHIEGEEQLEGLRRRLRAMERDGQLVFTRRQCYALPERLDLVKGTVIGHRDGYGFLRVEGRKDDLYLSSEQMKTCIHGDQVLAQPLGADRKGRREARIVRVLVPKTSQIVGRYFTEAGVGFVVPDDSRLSFDILIPPDQIMGARMGFVVVVELTQRPTRRTKAVGKIVEVLGDNMGTGMAVDIALRTHEIPYIWPQAVEQQVAGLKEEVPEEAKAGRVDLRDLPLVTIDGEDARDFDDAVYCEKKRGGGWRLWVAIADVSYYVRPSTPLDREARNRGTSVYFPSQVIPMLPEVLSNGLCSLNPQVDRLCMVCEMTVSSKGRLTGYKFYEAVMSSHARLTYTKVWHILQGDQDLREQYAPLVKHLEELHNLYKVLDKAREERGGISFESEEAKFIFNAERRIERIEQTQRNDAHKLIEECMILANISAARFVEKAKEPALFRIHDKPSTEAITSFRSVLAELGLELPGGNKPEPRDYAELLESVADRPDAEMLQTMLLRSMKQAIYDPENRGHFGLALQSYAHFTSPIRRYPDLTLHRAIKYLLAKEQGHQGNTTETGGYHYSMEEMLQLGQHCSMAERRADEATRDVADWLKCDFMLDQVGNVFKGVISSVTGFGFFVRLDDLFIDGLVHVSSLDNDYYRFDQVGQRLMGESSGQTYRLGDRVEVRVEAVNMDERKIDFSLISSERAPRNVGKTAREKAKKGDAGKKGGKRRQVGKKVNFEPDSAFRGEKKTKPKAAKKDARKAKKPSAKTQKIAAATKAKRAAKKKVAE”, the “total protein half-life in vivo” value by setting is: under setting [1], 6.54 ± 0.13 h; under setting [2], 5.66 ± 0.29 h; under setting [3], 5.87 ± 0.12 h; under setting [4], 5.35 ± 0.14 h; under setting [11], 3.06 ± 0.13 h; under setting [12], 6.06 ± 0.13 h. Further, the “total protein half-life in vivo” value under setting [5] came to 12.1 ± 0.14 h; the “total protein half-life in vivo” value under setting [6] turned out to be 5.67 ± 0.095 h; the “total protein half-life in vivo” value under setting [7] was 9.82 ± 0.13 h; the “total protein half-life in vivo” value under setting [8] came to 5.679 ± 0.029 h; the “total protein half-life in vivo” value under setting [9] turned out to be 11.2 ± 0.32 h.
With “MMVQHLKRRPLSRYLKDFKHSQTHCAHCRKLLDRITLVRDGKIVNKIEISRLDTLLDENGWQTEQKSWAALCRFCGDLHCKTQSDFFDIIGFKQFLFEQTEMSPGTVREYVVRLRRLGNHLHEQNISLDQLQDGFLDEILAPWLPTTSTNNYRIALRKYQHYQRQTCTRLVQKSSSLPSSDIY”, the “total protein half-life in vivo” value was determined as 6.005 ± 0.037 h under setting [1], 0.828 ± 0.34 h under setting [11] and 1.23 h under setting [5].
As to “MFDFSKVVDRHGTWCTQWDYVADRFGTADLLPFTISDMDFATAPCIIEALNQRLMHGVFGYSRWKNDEFLAAIAHWFSTQHYTAIDSQTVVYGPSVIYMVSELIRQWSETGEGVVIHTPAYDAFYKAIEGNQRTVMPVALEKQADGWFCDMGKLEAVLAKPECKIMLLCSPQNPTGKVWTCDELEIMADLCERHGVRVISDEIHMDMVWGEQPHIPWSNVARGDWALLTSGSKSFNIPALTGAYGIIENSSSRDAYLSALKGRDGLSSPSVLALTAHIAAYQQGAPWLDALRIYLKDNLTYIADKMNAAFPELNWQIPQSTYLAWLDLRPLNIDDNALQKALIEQEKVAIMPGYTYGEEGRGFVRLNAGCPRSKLEKGVAGLINAIRAVR”, the “total protein half-life in vivo” value runs as follows: under setting [1], 5.24 ± 1.1 h; under setting [10], 4.66 ± 0.39 h; under setting [2], 4.58 ± 0.52 h; under setting [3], 5.26 ± 0.077 h; under setting [4], 4.53 ± 0.058 h; under setting [11], 3.15 ± 0.095 h. Also, the “total protein half-life in vivo” value under setting [12] was 5.26 ± 0.26 h; the “total protein half-life in vivo” value under setting [5] was 10.2 ± 2 h; the “total protein half-life in vivo” value under setting [6] worked out at 4.39 ± 0.095 h; the “total protein half-life in vivo” value under setting [7] is 7.95 ± 0.93 h; the “total protein half-life in vivo” value under setting [8] is 5.78 ± 0.25 h; the “total protein half-life in vivo” value under setting [9] amounted to 11 ± 1.4 h.
“MMLSEETSAVRPQKQTRFNGAKLVWMLKGSPLTVTSAVIIVLMLLMMIFSPWLATHDPNAIDLTARLLPPSAAHWFGTDEVGRDLFSRVLVGSQQSILAGLVVVAIAGMIGSLLGCLSGVLGGRADAIIMRIMDIMLSIPSLVLTMALAAALGPSLFNAMLAIAIVRIPFYVRLARGQALVVRQYTYVQAAKTFGASRWHLINWHILRNSLPPLIVQASLDIGSAILMAATLGFIGLGAQQPSAEWGAMVANGRNYVLDQWWYCAFPGAAILLTAVGFNLFGDGIRDLLDPKAGGKQS”: the “total protein half-life in vivo” value runs as follows: under setting [4], 4.22 ± 0.1 h; under setting [6], 4.15 h; under setting [7], 6.94 h.
